In article PMC7018998:

Experiments:
[1] = biological target: ErbB2 (UniProt P04626); test: two-colour single molecule co-localisation and tracking (TOCCSL, TIR microscopy); live CHO-ErbB2-ErbB3 cells; AF488-ErbB3-Fab and AF647-ErbB3-Fab for homodimers, AF488-ErbB2-Fab and AF647-ErbB3-Fab for heterodimers; no HRG, no pertuzumab; room temperature; conditions: other: two-colour single molecule co-localisation and tracking (TOCCSL, TIR microscopy)
[2] = biological target: ErbB2 (UniProt P04626); test: two-colour single molecule co-localisation and tracking (TOCCSL, TIR microscopy); live CHO-ErbB2-ErbB3 cells; AF488-ErbB3-Fab and AF647-ErbB3-Fab for homodimers, AF488-ErbB2-Fab and AF647-ErbB3-Fab for heterodimers; with 200 ng/mL (25 nM) HRG, no pertuzumab; room temperature; conditions: other: two-colour single molecule co-localisation and tracking (TOCCSL, TIR microscopy)

Sequence of ErbB3 (chain): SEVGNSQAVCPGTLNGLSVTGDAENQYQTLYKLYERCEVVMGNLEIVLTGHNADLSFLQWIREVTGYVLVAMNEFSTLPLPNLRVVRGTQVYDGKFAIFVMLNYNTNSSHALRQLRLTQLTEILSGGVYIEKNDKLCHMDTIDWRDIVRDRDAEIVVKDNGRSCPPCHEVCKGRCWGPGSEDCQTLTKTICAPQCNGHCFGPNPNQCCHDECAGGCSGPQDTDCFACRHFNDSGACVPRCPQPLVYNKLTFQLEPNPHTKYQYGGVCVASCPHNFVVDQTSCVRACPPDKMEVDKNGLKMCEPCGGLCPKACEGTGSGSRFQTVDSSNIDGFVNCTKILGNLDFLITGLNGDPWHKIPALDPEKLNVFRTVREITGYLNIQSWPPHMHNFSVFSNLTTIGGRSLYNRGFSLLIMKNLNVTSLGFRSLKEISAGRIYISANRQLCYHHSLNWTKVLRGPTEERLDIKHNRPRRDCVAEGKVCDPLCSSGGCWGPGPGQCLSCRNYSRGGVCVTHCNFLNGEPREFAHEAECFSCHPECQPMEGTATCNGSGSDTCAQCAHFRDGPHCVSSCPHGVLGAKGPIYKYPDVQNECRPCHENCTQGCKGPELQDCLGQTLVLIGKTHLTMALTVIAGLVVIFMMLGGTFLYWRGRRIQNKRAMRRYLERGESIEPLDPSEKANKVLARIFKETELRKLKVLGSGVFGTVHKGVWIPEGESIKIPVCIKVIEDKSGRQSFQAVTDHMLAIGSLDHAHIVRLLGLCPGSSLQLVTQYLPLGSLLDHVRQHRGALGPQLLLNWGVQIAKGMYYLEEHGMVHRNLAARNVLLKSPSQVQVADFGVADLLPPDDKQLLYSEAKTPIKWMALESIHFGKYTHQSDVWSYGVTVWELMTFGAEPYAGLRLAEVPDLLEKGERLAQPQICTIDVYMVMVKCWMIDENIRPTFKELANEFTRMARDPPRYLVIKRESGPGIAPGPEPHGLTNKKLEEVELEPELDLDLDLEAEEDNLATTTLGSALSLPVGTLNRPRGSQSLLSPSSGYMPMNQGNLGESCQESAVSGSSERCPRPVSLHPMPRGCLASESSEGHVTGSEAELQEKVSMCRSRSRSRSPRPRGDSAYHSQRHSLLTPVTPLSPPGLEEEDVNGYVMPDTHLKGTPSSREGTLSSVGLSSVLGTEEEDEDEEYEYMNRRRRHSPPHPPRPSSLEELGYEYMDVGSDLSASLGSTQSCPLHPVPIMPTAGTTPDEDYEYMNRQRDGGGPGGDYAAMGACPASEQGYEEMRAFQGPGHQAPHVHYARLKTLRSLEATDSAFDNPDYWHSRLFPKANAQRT

ErbB3
percent of ErbB3 in ErbB3/ErbB2 heterodimers [1]: ∼70% of ErbB3 being associated to ErbB3/ErbB2 heterodimers | percent of ErbB3 in ErbB3/ErbB2 heterodimers [2]: a further increase of ErbB3/ErbB2 heterodimerization (∼90%
